Experimental data as given in patent US20100272709A1 (GENERAL HOSPITAL, published 2010).

Experiments:
[1] = target: wild type dynamin (dynWT; recombinant dynamin 1) (UniProt Q05193)
[2] = target: dynK44A (dominant-negative dynamin mutant that cannot bind GTP) (UniProt Q05193); assay: FLIM/FRET in fixed podocytes; donor GTPase-a488, acceptor Hudy1-a568; self-assembly
[3] = target: dynK44A (dominant-negative dynamin mutant that cannot bind GTP) (UniProt Q05193); assay: FLIM/FRET in fixed podocytes treated with cytochalasin D; donor GTPase-a488, acceptor Hudy1-a568; self-assembly
[4] = target: mouse monoclonal anti-dynamin GTPase antibody (Stressgene), recognizes the N-terminal GTPase domain; assay: FLIM/FRET in fixed podocytes; lifetime of donor GTPase-Alexa488 with acceptor GAR-Alexa568; - control
[5] = target: mouse monoclonal anti-dynamin GTPase antibody (Stressgene), recognizes the N-terminal GTPase domain; assay: FLIM/FRET in fixed podocytes; lifetime of donor GTPase-a488 with acceptor DAM-a568; + control
[6] = target: mouse monoclonal anti-dynamin GTPase antibody (Stressgene), recognizes the N-terminal GTPase domain; assay: FLIM/FRET in fixed podocytes; lifetime of donor GTPase-Alexa488 with acceptor DAM-Alexa568; + control
[7] = target: dynK44A (dominant-negative dynamin mutant that cannot bind GTP), Q05193
[8] = target: T1, dynR725A (GTP-hydrolysis impaired dynamin mutant)
T1 chain: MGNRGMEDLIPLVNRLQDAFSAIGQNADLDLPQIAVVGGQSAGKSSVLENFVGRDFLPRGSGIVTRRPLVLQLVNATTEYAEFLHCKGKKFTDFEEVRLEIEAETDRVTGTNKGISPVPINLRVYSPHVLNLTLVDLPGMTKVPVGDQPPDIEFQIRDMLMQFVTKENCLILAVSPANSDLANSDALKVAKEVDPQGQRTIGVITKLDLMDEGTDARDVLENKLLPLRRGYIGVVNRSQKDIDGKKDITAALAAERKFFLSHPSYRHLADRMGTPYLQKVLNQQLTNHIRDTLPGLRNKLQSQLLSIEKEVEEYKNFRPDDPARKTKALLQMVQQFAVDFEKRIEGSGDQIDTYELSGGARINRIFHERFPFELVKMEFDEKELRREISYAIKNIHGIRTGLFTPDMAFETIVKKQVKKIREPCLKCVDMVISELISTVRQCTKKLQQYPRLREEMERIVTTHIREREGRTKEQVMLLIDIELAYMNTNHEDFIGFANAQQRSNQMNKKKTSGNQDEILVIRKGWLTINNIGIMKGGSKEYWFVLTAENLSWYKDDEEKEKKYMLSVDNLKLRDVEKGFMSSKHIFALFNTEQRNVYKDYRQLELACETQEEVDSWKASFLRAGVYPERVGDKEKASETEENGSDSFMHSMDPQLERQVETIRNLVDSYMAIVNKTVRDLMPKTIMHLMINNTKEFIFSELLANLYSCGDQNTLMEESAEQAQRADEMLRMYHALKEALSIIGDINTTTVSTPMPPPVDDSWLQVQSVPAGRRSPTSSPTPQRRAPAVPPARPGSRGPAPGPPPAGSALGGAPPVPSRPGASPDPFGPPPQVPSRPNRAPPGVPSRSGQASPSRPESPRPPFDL

[9] = target: wild type dynamin (dynWT; recombinant dynamin 1), Q05193
[10] = target: T2, EYFP-dynK44A fusion (UniProt Q05193); assay: FLIM/FRET in live COS cells; lifetime of the ECFP donor; self-assembly
T2 sequence (looked up): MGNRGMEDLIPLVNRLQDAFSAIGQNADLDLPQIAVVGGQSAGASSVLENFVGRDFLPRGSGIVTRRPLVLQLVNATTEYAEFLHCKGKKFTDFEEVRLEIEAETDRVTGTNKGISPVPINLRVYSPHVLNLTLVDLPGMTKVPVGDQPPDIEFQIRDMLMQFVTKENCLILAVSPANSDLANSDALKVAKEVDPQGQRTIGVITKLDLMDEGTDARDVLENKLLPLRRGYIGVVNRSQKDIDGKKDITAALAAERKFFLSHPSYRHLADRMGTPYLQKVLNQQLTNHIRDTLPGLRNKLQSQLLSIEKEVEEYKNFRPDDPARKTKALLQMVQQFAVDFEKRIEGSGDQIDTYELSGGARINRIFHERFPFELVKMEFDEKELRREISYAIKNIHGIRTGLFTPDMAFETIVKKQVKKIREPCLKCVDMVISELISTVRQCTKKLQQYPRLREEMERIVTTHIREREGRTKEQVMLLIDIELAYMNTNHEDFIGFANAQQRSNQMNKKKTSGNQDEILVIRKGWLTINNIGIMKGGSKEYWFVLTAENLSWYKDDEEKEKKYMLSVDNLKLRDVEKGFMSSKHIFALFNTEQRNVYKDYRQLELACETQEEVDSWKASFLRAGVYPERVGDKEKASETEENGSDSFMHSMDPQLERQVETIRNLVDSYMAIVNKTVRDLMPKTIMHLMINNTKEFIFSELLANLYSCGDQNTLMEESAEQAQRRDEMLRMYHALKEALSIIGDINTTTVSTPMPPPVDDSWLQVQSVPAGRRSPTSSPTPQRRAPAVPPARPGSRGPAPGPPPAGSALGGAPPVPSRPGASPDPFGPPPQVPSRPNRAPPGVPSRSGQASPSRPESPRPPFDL

[11] = target: dynI690K (assembly incompetent dynamin mutant) (UniProt Q05193); assay: FLIM/FRET in fixed podocytes; donor GTPase-a488, acceptor Hudy1-a568; self-assembly
[12] = target: dynI690K (assembly incompetent dynamin mutant) (UniProt Q05193); assay: FLIM/FRET in fixed podocytes treated with cytochalasin D; donor GTPase-a488, acceptor Hudy1-a568; self-assembly

## purified cathepsin L (commercial)
[1]
  cleavage of purified dynamin by CatL at pH 7.0 with GTP, Western blot: addition of GTP resulted in the generation of a prominent proteolytic fragment with a molecular weight of -40 kD (p40)
  cleavage of purified dynamin by CatL at pH 7.0 with GTPγS, Western blot: addition of GTPγS, (non-hydrolysable GTP analog) did not stimulate cleavage by CatL
  cleavage of purified dynamin by CatL at pH 7.0 without nucleotide, Western blot: CatL did not cause significant cleavage of purified dynamin at pH 7.0
  cleavage of recombinant dynamin 1 by purified cathepsin L at pH 7.0 with GTP, Western blot with GTPase antibody: addition of GTP in the assay resulted in significant cleavage of dynamin by cathepsin L
  cleavage of recombinant dynamin 1 by purified cathepsin L at pH 7.0 with GTPγS: Addition of GTPγS, non-hydrolyzable GTP homolog abolished dynamin cleavage by cathepsin L
  cleavage of recombinant dynamin by CatL at pH 5.0 and 6.0, silver staining: At pH 5.0 and 6.0, CatL was highly reactive towards recombinant dynamin, even in the absence of GTP
  cleavage of recombinant dynamin by CatL at pH 5.0 and 6.0 with GTPγS, silver staining: this proteolysis was completely inhibited by addition of GTP7S
  cleavage of recombinant dynamin by cathepsin L at pH 5.0 and 6.0: at pH 5.0 and 6.0 cathepsin L potently proteolyzed recombinant dynamin

## cathepsin B (CatB, Sigma)
[1]
  cleavage of purified dynamin by CatB, Western blot: incubation of dynamin with CatB generated p55 in a nucleotide-independent manner

## dynK44A (dominant-negative dynamin mutant that cannot bind GTP) (from UniProt Q05193 1-864) (enzyme)
[2]
  Mean Lifetime (γ1): 2520 ps
[3]
  Mean Lifetime (γ1): 2310 ps

## goat anti-rabbit-alexa568 (GARalexa568), negative control acceptor (antibody)
[4]
  Mean Lifetime (γ1): 2420

## DAM-Alexa568 (secondary antibody used as positive control acceptor)
[5]
  Mean Lifetime (γ1): 1020
[6]
  Mean Lifetime (γ1): 1020

B1: endogenous mouse cathepsin L induced by LPS in podocytes and kidney (34 kD cytoplasmic short form) (protein)
chain: MRMIQLHNGEYSNGQHGFSMEMNAFGDMTNEEFRQVVNGYRHQKHKKGRLFQEPLMLKIPKSVDWREKGCVTPVKNQGQCGSCWAFSASGCLEGQMFLKTGKLISLSEQNLVDCSHAQGNQGCNGGLMDFAFQYIKENGGLDSEESYPYEAKDGSCKYRAEFAVANDTGFVDIPQQEKALMKAVATVGPISVAMDASHPSLQFYSSGIYYEPNCSSKNLDHGVLLVGYGYEGTDSNKNKYWLVKNSWGSEWGMEGYIKIAKDRDNHCGLATAASYPVVN
[7]
  p40 proteolytic fragment in cytosol of LPS-treated podocytes expressing dynK44A, Western blot: LPS treatment of podocytes expressing dynK44A, enzyme that cannot bind GTP, did not result in detectable levels of p40
[8]
  p40 proteolytic fragment in cytosol of LPS-treated podocytes expressing dynR725A, Western blot: LPS treatment of podocytes expressing dynR725A completely abolished presence of the p40
  p40 proteolytic fragment in cytosol of podocytes expressing dynR725A before LPS, Western blot: significant amount of p40 was present in cells expressing dynR725A prior to LPS treatment
[9]
  p40 proteolytic fragment in cytosol of LPS-treated podocytes expressing dynWT, Western blot: Addition of specific cathepsin L inhibitor (Z-FF-FMK, Calbiochem), to the tissue cultured podocytes treated with LPS resulted specifically in the loss of p40

B2: ECFP-dynK44A fusion (protein, UniProt Q05193 1-864, looked up, not shown: large carriers)
chain: MGNRGMEDLIPLVNRLQDAFSAIGQNADLDLPQIAVVGGQSAGASSVLENFVGRDFLPRGSGIVTRRPLVLQLVNATTEYAEFLHCKGKKFTDFEEVRLEIEAETDRVTGTNKGISPVPINLRVYSPHVLNLTLVDLPGMTKVPVGDQPPDIEFQIRDMLMQFVTKENCLILAVSPANSDLANSDALKVAKEVDPQGQRTIGVITKLDLMDEGTDARDVLENKLLPLRRGYIGVVNRSQKDIDGKKDITAALAAERKFFLSHPSYRHLADRMGTPYLQKVLNQQLTNHIRDTLPGLRNKLQSQLLSIEKEVEEYKNFRPDDPARKTKALLQMVQQFAVDFEKRIEGSGDQIDTYELSGGARINRIFHERFPFELVKMEFDEKELRREISYAIKNIHGIRTGLFTPDMAFETIVKKQVKKIREPCLKCVDMVISELISTVRQCTKKLQQYPRLREEMERIVTTHIREREGRTKEQVMLLIDIELAYMNTNHEDFIGFANAQQRSNQMNKKKTSGNQDEILVIRKGWLTINNIGIMKGGSKEYWFVLTAENLSWYKDDEEKEKKYMLSVDNLKLRDVEKGFMSSKHIFALFNTEQRNVYKDYRQLELACETQEEVDSWKASFLRAGVYPERVGDKEKASETEENGSDSFMHSMDPQLERQVETIRNLVDSYMAIVNKTVRDLMPKTIMHLMINNTKEFIFSELLANLYSCGDQNTLMEESAEQAQRRDEMLRMYHALKEALSIIGDINTTTVSTPMPPPVDDSWLQVQSVPAGRRSPTSSPTPQRRAPAVPPARPGSRGPAPGPPPAGSALGGAPPVPSRPGASPDPFGPPPQVPSRPNRAPPGVPSRSGQASPSRPESPRPPFDL
[10]
  Mean Lifetime (γ1) ps: 1860 ps

B3: dynI690K (assembly incompetent dynamin mutant) (enzyme, UniProt Q05193 1-864, looked up)
chain: MGNRGMEDLIPLVNRLQDAFSAIGQNADLDLPQIAVVGGQSAGKSSVLENFVGRDFLPRGSGIVTRRPLVLQLVNATTEYAEFLHCKGKKFTDFEEVRLEIEAETDRVTGTNKGISPVPINLRVYSPHVLNLTLVDLPGMTKVPVGDQPPDIEFQIRDMLMQFVTKENCLILAVSPANSDLANSDALKVAKEVDPQGQRTIGVITKLDLMDEGTDARDVLENKLLPLRRGYIGVVNRSQKDIDGKKDITAALAAERKFFLSHPSYRHLADRMGTPYLQKVLNQQLTNHIRDTLPGLRNKLQSQLLSIEKEVEEYKNFRPDDPARKTKALLQMVQQFAVDFEKRIEGSGDQIDTYELSGGARINRIFHERFPFELVKMEFDEKELRREISYAIKNIHGIRTGLFTPDMAFETIVKKQVKKIREPCLKCVDMVISELISTVRQCTKKLQQYPRLREEMERIVTTHIREREGRTKEQVMLLIDIELAYMNTNHEDFIGFANAQQRSNQMNKKKTSGNQDEILVIRKGWLTINNIGIMKGGSKEYWFVLTAENLSWYKDDEEKEKKYMLSVDNLKLRDVEKGFMSSKHIFALFNTEQRNVYKDYRQLELACETQEEVDSWKASFLRAGVYPERVGDKEKASETEENGSDSFMHSMDPQLERQVETIRNLVDSYMAIVNKTVRDLMPKTIMHLMKNNTKEFIFSELLANLYSCGDQNTLMEESAEQAQRRDEMLRMYHALKEALSIIGDINTTTVSTPMPPPVDDSWLQVQSVPAGRRSPTSSPTPQRRAPAVPPARPGSRGPAPGPPPAGSALGGAPPVPSRPGASPDPFGPPPQVPSRPNRAPPGVPSRSGQASPSRPESPRPPFDL
[11]
  Mean Lifetime (γ1): 2360 ps
[12]
  Mean Lifetime (γ1): 2430 ps
